Reference: the supplement of paper PMC9170038

System: MS2 coat protein
Assay: apparent KD of MS2 coat protein; higher = weaker reporter binding
Conditions: Eterna round: R107
Procedure, shortened: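 Titrations with SNAP-549-labelled MS2 coat protein ran in twofold steps from 0.7 or 1.5 nM to 3 µM, each step taking 0.8–1.5 h at the start and 10–20 min toward the end. The targets were designed RNA switches transcribed on-chip from Illumina sequencing clusters, held in 100 mM Tris-HCl pH 7.5, 80 mM KCl, 4 mM MgCl2, without or with constant ligand. Apparent KD was taken per design as the median of normalised cluster binding-curve fits.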

[1] = input ligand: theophylline 20 uM
[2] = input ligand: theophylline 2 mM
[3] = input ligand: tryptophan 2.4 mM

Row | Sequence | apparent KD of MS2 coat protein (input ligand: arginine 13.2 mM) | apparent KD of MS2 coat protein (input ligand: none) | apparent KD of MS2 coat protein [1] | apparent KD of MS2 coat protein [2] | apparent KD of MS2 coat protein [3]
1 | CUGGACAUGAGGAUCACCCAUGUAAAUCCUCGAGGACCGGUACGGCCGCCACUCGAACGAGUGGCGCGCGAGUGCGCACUCGCGC [aKa] | 43.6 nM | 41.4 nM | 66.9 nM | 49.3 nM | 28.3 nM
2 | GCCGCGGCCGCGAUACACAUGGGUGUGUAACGAGGACCGGUACGGCCGCCACUCGAGAUGAUGUACAUGAGGAUCACCCAUGUAC [Exclusion Tryp A GF13] | 11.8 nM | 11.6 nM | 15.4 nM | 11.9 nM | 13.9 nM
3 | UGACAUUGCUCAGAUACCAGACAUGAGGAUCACCCAUGUGCCAAAUAAACGUACAUAAAUGUCCCUUGGCAGCUGAGCAAUGUCU [TheoBX 11 #MS2Left #Theo2] | 46.8 nM | – | 87.5 nM | – | 59.1 nM
4 | AUUUACAUGGUCAUAUAUAUAUCGUCAGAUACCAGACUAGAUAUUGUCCCUUGGCAGCUGUUACAUGAGGAUCACCCAUGUUAUA [JR_Nu_ExcTheophyA_Sub020] | 54.5 nM | – | 113 nM | – | 178 nM
5 | GGCCGAUGGUGCGAUACCAGCUUGAGUGUACUGGCCAGGUACAUGAGGAUCACCCAUGUAAGCCCUUGGCAGCGCGUCAGAGGCC [#1 Exclusion - Theophylline B Attempt #21 (HarryS)] | – | – | 15.5 nM | – | 11.3 nM
6 | AACAUGAGGAUCACCCAUGUGUCCUCGAAACGAGGACCGGUACGGCCGCCACUCGAAAAGGUGUUGACGAAAAGUCAGCACCAAA [Mat - Exclusion - Trytophan A - D16] | 129 nM | 264 nM | 451 nM | 451 nM | 820 nM
7 | AAAUAAAUACAUGAGGAUCACCCAUGUGAAGGAGCGCGCGUUAGCGCAGGUAGGUCGCACAUGAACUCCAAAGUGCGAAAGCACA [MAT - Exclusion Arginine A - Mod of Eli - D9] | 14.5 nM | 20 nM | 23.1 nM | 34.1 nM | 20.9 nM
8 | GCACCAGGUACGGAUACCAGAGCAAGCCAAAUGAGUGACCAUGAGGAUCACCCAUGGUUGCUCCCUUGGCAGCCGUACCUGGUGC [ETB NP+V+V2 #13 Diff Apt, +-Same Structure] | 7.28 nM | 12 nM | 12.1 nM | 79 nM | 10.9 nM
9 | UGUCGGCGUAAGUUGGCAUGUCUUGCUGGUCGAGGACCGGUACGGCCGCCACUCGAUCCUUCGCACAUGAGGAUCACCCAUGUUG [SS Tryp A #25] | 20.3 nM | – | 29.3 nM | 20.4 nM | –
10 | CCUAUCCAGUCGGCCGCCACUGACCAUUUGGAACAGUGGGUGAAUACAUGAGGAUCACCCAUGUACAGGACCGGGACUGUAUAGG [Ex Tryptophan B 21] | 14.4 nM | 11.2 nM | 13.1 nM | 10.4 nM | 27.9 nM
11 | UGAUCCUGCAGGGAUACCAGCGCCGCUAGAUAACUAUGCACAUGAGGAUCACCCAUGUAACGCCCUUGGCAGCCCAGCUAAAGGG [Same State Theophylline B GF22] | 23.1 nM | 58.7 nM | 60.1 nM | 31.3 nM | 48.1 nM
12 | AACAUCUGGCGUGAUACCAGCCACAUGAGGAUCACCCAUGUCAACACUCGCAAUUGCGACGGCCCUUGGCAGCACGCAUCCUCAG [Sorioncege] | 49 nM | – | 34.8 nM | – | 60.9 nM
13 | UUAAUUAUUGAAUCGUAUUGGUAUUAAGAACGAGGACCGGUACGGCCGCCACUCGUGAUAUACAUGAGGAUCACCCAUGUUAGCA [JR_Nu_SSTryptoA_Sub022] | 15 nM | – | 18.6 nM | 18.1 nM | –
14 | GGUUGGUGUAGAGAUAUAUUGAUUACUGAAGGAGCGGGAAUAAACCCAGGUAGGUCGCAGAGAUCCACAUGAGGAUCACCCAUGU [!0.O] | 32 nM | 36.9 nM | 54.6 nM | 53 nM | 35.3 nM
15 | GGGCGAGUGGCGCGGCGUGCUCCGCUCCGUCGAGGACCGGUACGGCCGCCACUCGACAUGAGGAUCACCCAUGUGCGAGCUCGCG [#1 Exclusion - Tryptophan A Attempt #12 (HarryS)] | 24.7 nM | 52.5 nM | 71.7 nM | 101 nM | 39.8 nM
